The data set is described as follows: protein stability index of a GFP-peptide fusion (GPS, HEK-293T) (PSI 1-6); higher = more stable.
Setting [1] is: treatment: DMSO, c terminus: a fixed tail appended.
The mark [2] stands for this setting: treatment: MLN4924 1 uM, 8 h, c terminus: a fixed tail appended.
The mark [3] stands for this setting: treatment: DMSO, c terminus: native.
Setting [4] is: treatment: MLN4924 1 uM, 8 h, c terminus: native.

This passage reports protein stability index results from the supplement of paper PMC10567573.

± gives the standard deviation.
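Also: 24-mer peptide tiles fused after GFP, lentivirally expressed, FACS-sorted into six equal bins by GFP/DsRed ratio, decoded by Illumina sequencing, PSI is the read-weighted mean bin number.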

Take TPYLKETLNSIWNVEDHINPKLPN [POMT2]: the protein stability index stood at 3.37 ± 0.28 under setting [1] and 3.45 ± 0.2 under setting [2].
With TQGLPWRFEELLTCSHWPSFFPS [TEX19], the protein stability index runs as follows: under setting [3], 2.78 ± 0.46; under setting [4], 2.24 ± 0.87.
Sequence TQRQYKEDESQSEEENDYRNLDAS [CEP70] yielded a protein stability index under setting [1] of 5.41 ± 0.25 and a protein stability index under setting [2] of 5.51 ± 0.6.
As to TSFALERNLRTQQEIEDKMKGFSF [C8orf76], the protein stability index amounted to 3.54 ± 0.19 under setting [1] and 3.53 ± 0.2 under setting [2].
For the sequence TSVEEESFGPQPISRLEQCGINAN [RAD51], the protein stability index came to 4.63 ± 0.39 under setting [1] and 4.63 ± 0.18 under setting [2].
As for TTIEDEDAKARKQEIIKTTEQLIE [CAMK2B], the protein stability index is, setting by setting: under setting [1], 5.14 ± 0.22; under setting [2], 5.32 ± 0.24.
Turning to TTPPGHGTLDNSKSMKPYNYCSAY [NEUROD6], the protein stability index runs as follows: under setting [1], 3.27 ± 0.18; under setting [2], 3.25 ± 0.17.
On to TTSEEAVGGATLAQTTSEAAMEGA [HDAC6], for which the protein stability index turned out to be 5.59 ± 0.34 under setting [1] and 5.43 ± 0.31 under setting [2].
On to TTTRHKRTANPSKTIDLGAAAHYT [CLINT1], for which the protein stability index runs as follows: under setting [1], 3.94 ± 0.2; under setting [2], 4.06 ± 0.16.
The corresponding values for TVARPVFTEYQASAFGNVKLVVHD [RHOBTB3] are 3.06 ± 0.33 and 3.17 ± 0.23.
As to TVFRAILDYYKTGIIRCPDGISIP [BTBD10], the protein stability index is, setting by setting: under setting [1], 3.01 ± 0.24; under setting [2], 2.56 ± 0.43.
As to TVSSPIPYTPSPSSSRPISPGLSY [CCDC6], the protein stability index by setting is: under setting [1], 3.58 ± 0.1; under setting [2], 3.61 ± 0.45.
The corresponding values for TYRIRIEMSKDALPEKACQLDSRY [FBXO3] are 2.37 ± 0.12 and 2.57 ± 0.35.
Consider VAGNPQDTRLRYSFFVPRPTPSTP [ADAMTS4], for which the protein stability index under setting [1] is 3.11 ± 0.36 and the protein stability index under setting [2] was 3.18 ± 0.25.
Regarding VAKLESECLKRQGQREPGSLSRNN [FBXO34], the protein stability index is, setting by setting: under setting [1], 4.77 ± 0.098; under setting [2], 4.75 ± 0.35.
For the sequence VAKLQESQPGNAVIDKETIDLLAF [SDE2], the protein stability index by setting is: under setting [1], 2.98 ± 0.48; under setting [2], 3.29 ± 0.37.
Consider VATNSAGTRYSAPANLYVRELREV [PTPRD], for which the protein stability index is 3.05 ± 0.32 under setting [1] and 3.45 ± 0.37 under setting [2].
In the case of VAWNGPRMGDADYLAAWHRLVLPI [HDAC6], the protein stability index is 2.52 ± 0.52 under setting [1] and 2.26 ± 0.25 under setting [2].
With VCESMKEQLLVLVEWAKYIPAFCE [HNF4A], the protein stability index is, setting by setting: under setting [1], 2.51 ± 0.38; under setting [2], 2.34 ± 0.38.
VCLMGHERRQTLNLISLLALRVLA [TENT5C] registered a protein stability index under setting [1] of 2.72 ± 0.56 and a protein stability index under setting [2] of 2.5 ± 0.37.
Consider VCVGSDVTSIHKYMVRRYFNKPSR [MYORG], for which the protein stability index amounted to 2.37 ± 0.2 under setting [1] and 2.34 ± 0.18 under setting [2].
The sequence VDGKTIKAQIWDTAGQERYRAITS [RAB11A] yielded a protein stability index under setting [1] of 3.34 ± 0.19 and a protein stability index under setting [2] of 3.68 ± 0.22.
Take VDNISTLDSEIKKNSDGMEAAGVQ [CD207]: the protein stability index was 5.4 ± 0.37 under setting [1] and 5.49 ± 0.23 under setting [2].
In the case of VDPIGHVYIFATCLGLSYDGLLGD [MAGEA6], the protein stability index was determined as 3.17 ± 0.45 under setting [1] and 3.1 ± 0.29 under setting [2].
With VEGFRITLVDESDLYNWEVAIFGP [UBE2R2], the protein stability index is, setting by setting: under setting [1], 2.84 ± 0.79; under setting [2], 2.52 ± 0.68.
As to VEIVKSDFHKPFLGGFRHKVTGVE [IQUB], the protein stability index was 2.17 ± 0.23 under setting [1] and 2.5 ± 0.39 under setting [2].
With VEKETQEKMTILQTYFRQNRDEVL [ATP6V1G1], the protein stability index reads like this: under setting [1], 3.61 ± 0.34; under setting [2], 3.78 ± 0.26.
With VEVDAAPAVDLNQVLNETRNQYEA [KRT33B], the protein stability index under setting [1] came out at 4.91 ± 0.29 and the protein stability index under setting [2] stood at 5.17 ± 0.21.
In the case of VFEYCDHTLLNELERNPNGVADGV [CDKL4], the protein stability index stood at 3.89 ± 0.57 under setting [1] and 4.03 ± 0.55 under setting [2].
Regarding VFFLFPHSVLVDDDGIKVVKVTFN [TMEM106C], the protein stability index by setting is: under setting [1], 2.76 ± 0.45; under setting [2], 2.65 ± 0.74.
Take VFLNLHTLKFYCLPDNYEIIDSSL [USP39]: the protein stability index was determined as 3.08 ± 0.48 under setting [1] and 2.58 ± 0.33 under setting [2].
Turning to VGIYATNSAEACQYVITHAKVNIL [ACSBG2], the protein stability index by setting is: under setting [1], 2.73 ± 0.69; under setting [2], 2.38 ± 0.83.
The corresponding values for VGRLKRERSMSENAVRQNGQLVRN [MFF] are 5 ± 0.16 and 4.94 ± 0.078.
In the case of VHVFGDELSLVTLFRCIQNMPETL [TNFSF13B], the protein stability index is, setting by setting: under setting [1], 2.5 ± 0.31; under setting [2], 2.58 ± 0.58.
VILEVSLEGSHDTANCEACTLGIC [RTP4]: the protein stability index under setting [1] is 3.86 ± 0.13 and the protein stability index under setting [2] came to 3.78 ± 0.28.
Turning to VILSEIKEAVAALPPDVTTQSVMG [TCF25], the protein stability index worked out at 2.77 ± 0.43 under setting [1] and 2.65 ± 0.2 under setting [2].
In turn, VKDEAHQAQKDPKKDRPLARRKSE [PPP2R5C] showed a protein stability index under setting [1] of 5.55 ± 0.25 and a protein stability index under setting [2] of 5.43 ± 0.22.
Sequence VKDLIKKLLVVDRTRRLGNMKNGA [PRKX] returned a protein stability index under setting [1] of 2.62 ± 0.57 and a protein stability index under setting [2] of 2.33 ± 0.56.
In the case of VKEDDKLIFHRHPVAQSTDAIRGK [SPSB1], the protein stability index is, setting by setting: under setting [1], 4.56 ± 0.25; under setting [2], 4.69 ± 0.25.
In turn, VKLGPALTPHIVQYQANKVTHTLT [PPEF2] registered a protein stability index under setting [1] of 2.35 ± 0.34 and a protein stability index under setting [2] of 2.2 ± 0.42.
The corresponding values for VKQEEDIKPPPPLVLNSQQSDTLE [RAD54B] are 5.42 ± 0.22 and 5.39 ± 0.33.
Take VLEAKMTMLTVIEQPVPPTPATPE [EMID1]: the protein stability index by setting is: under setting [1], 3.72 ± 0.38; under setting [2], 3.89 ± 0.24.
The corresponding values for VLGGRRLRRAWFSWPRASPASGAS [SCNN1D] are 2.89 ± 0.35 and 2.86 ± 0.39.
The corresponding values for VLSESSGPSNTSHSSSRDSHLSNG [C2CD2L] are 4.96 ± 0.28 and 5 ± 0.13.
The corresponding values for VLSILHATLPGIFMLLLIFFAFLH [SOAT2] are 2.87 ± 0.32 and 3.17 ± 0.41.
On to VPDGLGLDEAREEEGDREVVLYG [TRIB3], for which the protein stability index reads like this: under setting [3], 4.96 ± 0.33; under setting [4], 5.26 ± 0.28.
In the case of VPEEPPVKKLMRTSTPPPASVINN [ZBED1], the protein stability index was found to be 4.89 ± 0.29 under setting [1] and 4.94 ± 0.19 under setting [2].
For VPVKKQKTRTVFSSTQLCVLNDRF [NANOGP8], the protein stability index is, setting by setting: under setting [1], 2.57 ± 0.23; under setting [2], 2.77 ± 0.32.
The corresponding values for VQKSIYSEFLKRFVEATRKWKVGI [ALDH8A1] are 2.75 ± 0.91 and 2.83 ± 0.54.
The corresponding values for VRLDRVRGGRQKYKRRIDAENSPY [ESRRG] are 3.81 ± 0.25 and 3.75 ± 0.052.
Consider VSTKEQILDLLVLEQFLSILPKEL [ZSCAN9], for which the protein stability index reads like this: under setting [1], 3.21 ± 0.93; under setting [2], 3.02 ± 0.65.
Consider VSVPENLPVGTQLLTVTATDRDEG [PCDHGA10], for which the protein stability index by setting is: under setting [1], 5.42 ± 0.38; under setting [2], 5.27 ± 0.12.
